# Legend:
# [1] = test system: miRNA expression in RAW264.7 cells; assay: qRT-PCR of osteoclast miRNA expression after sICAM1 treatment; assay type: cell-based, murine; details: for sICAM1-induced miRNA expression changes: 50 ng/ml sICAM1, 20 μM inhibitor, 6 days
# Experimental: (§1) mRNA was analyzed by synthesizing cDNA using the Superscript III First-strand kit (Invitrogen) and qPCR performed using the Power SYBR® green PCR master mix (Applied Biosystems). Mature miRNAs were reverse transcribed using the TaqMan Reverse Transcription Kit (Applied Biosystems) followed by real-time PCR using TaqMan miRNA assays (Applied Biosystems). All analysis was performed using an ABI 7900HT PCR machine according to the manufacturer's instructions. A standard curve was created from serial dilutions from cDNA for each gene of interest. Values were normalized by the expression of GAPDH or RNU6B in each sample.
# [2] = target: RANKL; assay: cell-based or functional assay
# [3] = test system: RAW264.7 cells; assay: RANKL-induced osteoclast differentiation, TRAP staining; assay type: cell-based, murine; details: for osteoclast differentiation / TRAP+ osteoclasts: 6 days
# Excerpt: HeLa and RAW264.7 cells (American Type Culture Collection, ATCC) were maintained in Dulbecco's modified Eagle's medium (DMEM) supplemented with 10% fetal bovine serum (FBS), penicillin/streptomycin (GIBCO), and fungizone. MOCP-5 cells were maintained in αMEM with 10% FBS and antibiotics. MDA-MB-231 parental cells (ATCC) and all sublines (SCP2, SCP4, SCP6, SCP28, SCP46) were maintained in DMEM with 10% FBS and antibiotics. The murine 4T1 and 4T1.2 cells, and human TSU-Pr1, and TSU-PR1-B2 cells were similarly maintained in DMEM with 10% FBS and antibiotics. For osteoclast differentiation assays, cells were treated with indicated concentration of RANKL in DMEM plus 10% FBS, with media changes performed every 2 days. Primary osteoclasts were isolated from bone marrow cells flushed from the tibia of 6-week-old wild type Balb/c mice and filtered through a […] cell-strainer before overnight culture in aMEM with 10% FBS. The following day 1×10^6 non-adherent cells were plated in 6-well plates supplemented with 50 ng/mL M-CSF for 2 days, followed by 50 ng/mL RANKL for an additional 4-5 days, with media changes every 2 days. Human osteoclasts were obtained from Lonza (2T-110) and differentiated by treatment with 33 ng/ml M-CSF and 66 ng/ml RANKL. CM was collected from the indicated sub-confluent tumor cells grown in DMEM with […] for 24 hours. The CM was passed through a 0.2 μm filter before addition to 1×10^5 RAW264.7 or MOCP-5 cells in a 6-well plate. The media was replaced with fresh CM daily. Cells were TRAP stained on day 6 using a leukocyte acid phosphatase kit (Sigma) and TRAP^+-multineucliated cells were quantified as mature osteoclasts. […]
# [4] = test system: RAW264.7 cells; assay: In vitro bone resorption assay on bovine bone slices; assay type: cell-based, murine; details: miRNA transfection, 50 ng/ml RANKL, relative to control cells
# Experimental: 5×10^4 pre-osteoclast cells were seeded onto 1 mm thick slices of bovine bone cut using a diamond saw and sterilized by immersion in 70% ethanol. Cells were cultured for 10 days as indicated in 6-well plates, transferred to fresh plates and washed to remove osteoclasts. Bone slices were stained in a solution of 1% toludine blue in 0.5% sodium tetraborate, destained in PBS plus 1% Triton X-100, and imaged by light microscopy.
# In vitro bone resorption assay was then used to measure the effect of ectopic miRNA expression on osteoclast activity. […] Referring to this figures, scale bar represents 200 μm. Results were statistically significant with p<0.01 (**) and p<0.001 (***). […] Since these miRNAs may inhibit osteoclast differentiation or function by targeting different mRNAs, the repression of osteoclast differentiation was further examined using combinations of inhibitory miRNAs. Given that transient transfection with 10 pM of miRNA precursors was sufficient to inhibit up to approximately 90% of osteoclast differentiation, RAW264.7 cells were treated with a combination of miRNAs at a reduced concentration of 1 pM total precursors.
# [5] = test system: Pu.1, Nfatc1, Ctsk in RAW264.7 cells; assay: Western blot of Pu.1, Nfatc1, Ctsk after miRNA transfection and RANKL; assay type: cell-based, murine; details: transient miRNA transfection, 50 ng/ml RANKL
# Experimental: SDS lysis buffer (0.05 mM Tris-HCl, 50 mM BME, 2% SDS, 0.1% Bromophenol blue, 10% glycerol) was used to collect protein from cells. Samples were sonicated and heat denatured protein was equally loaded, separated on a 10% SDS-page gel, transferred onto a pure nitrocellulose membrane (BioRad), and blocked with 5% milk. Primary antibodies for immunoblotting included: anti-IκBα (1:1000 dilution, Cell signaling, 44D4), anti-p-p65 (1:500 dilution, Santa Cruz Biotechnology), anti-Pu.1 (5 μg/ml, Abcam, AB88082), anti-Nfatc1 (1 μg/ml, Abcam, AB25916), anti-Ctsk (4 μg/ml, Abcam, AB19027), anti-β-actin (1:5000 dilution, ABcam), for loading control. Membranes were incubated with horseradish peroxidase (HRP)-conjugated anti-mouse secondary antibody (1:2000 dilution, GE Healthcare) or anti-rabbit secondary antibody (1:2000 dilution, GE Healthcare) for 1 h and chemiluminescence signals were detected by ECL substrate (GE Healthcare).
# To better examine the capacity of the miRNAs to inhibit osteoclast differentiation, osteoclast markers were examined in RAW264.7 cells transfected with the miRNA of interest, followed by RANKL treatment. FIG. 5F illustrates Western blot analysis for Pu.1, Nfatc1, or Ctsk in RAW264.7 cells after transient transfection with indicated miRNA and treatment with 50 ng/ml RANKL. Data in the figure represent average ±SEM; p values were based on Student's t-test.
# [6] = test system: osteoclast marker genes in RAW264.7 cells; assay: qRT-PCR of osteoclast marker genes; assay type: cell-based, murine; details: sICAM1 together with 50 ng/ml RANKL versus RANKL alone
# Experimental: as §1
# [7] = test system: RAW264.7 cells; assay: Chemotaxis assay of RAW264.7 cells; assay type: cell-based, murine; details: series of sICAM1 concentrations
# Experimental: Chemotaxis assay was performed as described (Lu et al., 2011) with the following modifications: 10^5 RAW264.7 cells in 100 μl of 0.5% BSA in DMEM were seeded into the upper chamber of 8 μm pore transwell inserts (BD Bioscience) in a 24-well plate. 300 μl of 0.5% BSA in DMEM containing a series of concentrations of recombinant ICAM1 (R&D Systems) was added to the bottom chamber. After 8 h in culture, methanol was added to the bottom chamber to fix migrated cells. Cells in the upper chamber were removed with a cotton swab and stained for 30 mins in 0.2% crystal violet for quantification using a microscope.
molecule,measurement,setting,value
O=C(Nc1cc(Cl)cc2c1[nH]c1cnccc12)c1cccnc1 [PS1145],sICAM1-induced miRNA expression changes,[1],abrogated
same,sICAM1-induced miRNA expression changes,[1]; listed as PS1154,higher levels of miRNA expression
OPG (receptor),"decrease in osteoclast differentiation of RAW264.7 cells induced by 30 ng/ml RANKL, with 200 ng/ml OPG",[2],> 80%
"miR-33a: miRNA, SEQ ID NO: 74; delivered as pre-miRNA precursor; down-regulated during osteoclastogenesis (nucleic acid, listed as Homo sapiens, pre-miRNA precursor hairpin, chemistry not given here) CUGUGGUGCAUUGUAGUUGCAUUGCAUGUUCUGGUGGUACCCAUGCAAUGUUUCCACAGUGCAUCACAG",osteoclast maturation and activity,[3]; all models tested,Partial inhibition
same,bone resorption (osteoclast activity),[4],only a small decrease in bone resorption
same,"expression of Pu.1, Nfatc1, Ctsk (Western blot)",[5],retained expression of all three osteoclast genes
"sICAM1: soluble ICAM1, the cleaved extracellular domain of ICAM1; recombinant ICAM1 (R&D Systems, 796-IC-050) (protein) QVSIHPREAFLPQGGSVQVNCSSSCKEDLSLGLETQWLKDELESGPNWKLFELSEIGEDSSPLCFENCGTVQSSASATITVYSFPESVELRPLPAWQQVGKDLTLRCHVDGGAPRTQLSAVLLRGEEILSRQPVGGHPKDPKEITFTVLASRGDHGANFSCRTELDLRPQGLALFSNVSEARSLRTFDLPATIPKLDTPDLLEVGTQQKLFCSLEGLFPASEARIYLELGGQMPTQESTNSSDSVSATALVEVTEEFDRTLPLRCVLELADQILETQRTLTVYNFSAPVLTLSQLEVSEGSQVTVKCEAHSGSKVVLLSGVEPRPPTPQVQFTLNASSEDHKRSFFCSAALEVAGKFLFKNQTLELHVLYGPRLDETDCLGNWTWQEGSQQTLKCQAWGNPSPKMTCRRKADGALLPIGVVKSVKQEMNGTYVCHAFSSHGNVTRNVYLTVLYHSQNN",osteoclast differentiation,[3]; 50 ng/ml sICAM1 alone,not sufficient to induce differentiation
same,time to osteoclast differentiation,[3]; 50 ng/ml sICAM1 and 50 ng/ml RANKL together,≤ 2 days
same,osteoclast differentiation,[3]; 50 ng/ml sICAM1 combined with 10 ng/ml RANKL,additive effect
same,TRAP+ osteoclasts,[3]; 50 ng/ml sICAM1 with 4 ng/ml RANKL,high levels
same,TRAP+ osteoclasts,[3]; low levels of sICAM1 with 4 ng/ml RANKL,no effect
same,time course of osteoclast marker gene expression,[6],reduced the time necessary for osteoclast differentiation
same,RAW264.7 cell migration,[7],increased migration in a dose dependent manner
same,expression of miRNAs downregulated during osteoclastogenesis,"[1]; 50 ng/ml sICAM1, magnified after co-treatment with RANKL",significant inhibition
